Data published in patent US20240417485A1 (UNIVERSITY OF PITTSBURGH OF THE COMMONWEALTH SYSTEM OF …, published 2024).

B1: DbTE 3 (bispecific antibody, human IgG1)
chain: EVQLVESGGGLVQPGGSLRLSCAASGFTFSRYWMSWVRQAPGKALEWIGEINHSGSTNYNPSLKSLVTISRDNSKNTLYLQMNSLRAEDTATYYCARSLVPALSYYYYYGMDVWGQGTTVTVSSGSGSSGSGSSGSGSSQVQLVQSGGGVVQPGRSLRLSCKASGYTFTRYTMHWVRQAPGKGLEWIGYINPSRGYTNYNQKVKDRFTISRDNSKNTAFLQMDSLRPEDTGVYFCARYYDDHYCLDYWGQGTPVTVSSGGGGSGGGGSGGGGSGGGGSGGGGSGGGGSDIQMTQSPSSLSASVGDRVTITCSASSSVSYMNWYQQTPGKAPKRWIYDTSKLASGVPSRFSGSGSGTDYTFTISSLQPEDIATYYCQQWSSNPFTFGQGTKLQITRGSGSSGDKTHTCPPCPAPEAAGGPSVFLFPPKPKDTLMISRTPEVTCVVVDVSHEDPEVKFNWYVDGVEVHNAKTKPREEQYNSTYRVVSVLTVLHQDWLNGKEYKCKVSNKALGAPIEKTISKAKGQPREPQVYTLPPSRDELTKNQVSLTCLVKGFYPSDIAVEWESNGQPENNYKTTPPVLDSDGSFFLYSKLTVDKSRWQQGNVFSCSVMHEALHNHYTQKSLSLSPGKGSHHHHHH
notes: Single chain: VH 3, linker, humanized OKT3 scFv (VH-(G4S)6-VL), human IgG1 Fc with LALAPG mutations, His tag; also called anti-uPAR DbTE 3; domain-based bispecific T cell engager 3
B2: VH 115 (VHH)
VHH: EVQLVESGGGLVQPGGSLRLSCKGSGFTFGDYAIGWVRQAPGQRLEWIGWINTNSGSPKYAQGFTGRFTISRDNSKNTLYLQMNSLRAEDTAVYYCATDVVVPWGQGSQVTVSS
notes: Fully human single VH domain from a phage library, expressed in E. coli; It was purified on Ni-NTA and detected with anti-FLAG, so a His tag and a FLAG tag are implied
B3: VH 3 (VHH)
VHH: EVQLVESGGGLVQPGGSLRLSCAASGFTFSRYWMSWVRQAPGKALEWIGEINHSGSTNYNPSLKSLVTISRDNSKNTLYLQMNSLRAEDTATYYCARSLVPALSYYYYYGMDVWGQGTTVTVSS
notes: Fully human single VH domain from a phage library, expressed in E. coli; It was purified on Ni-NTA and detected with anti-FLAG, so a His tag and a FLAG tag are implied; also called clone 3; anti-uPAR VH 3
B4: DbTE 115 (bispecific antibody, human IgG1)
chain: EVQLVESGGGLVQPGGSLRLSCKGSGFTFGDYAIGWVRQAPGQRLEWIGWINTNSGSPKYAQGFTGRFTISRDNSKNTLYLQMNSLRAEDTAVYYCATDVVVPWGQGSQVTVSSGSGSSGSGSSGSGSSQVQLVQSGGGVVQPGRSLRLSCKASGYTFTRYTMHWVRQAPGKGLEWIGYINPSRGYTNYNQKVKDRFTISRDNSKNTAFLQMDSLRPEDTGVYFCARYYDDHYCLDYWGQGTPVTVSSGGGGSGGGGSGGGGSGGGGSGGGGSGGGGSDIQMTQSPSSLSASVGDRVTITCSASSSVSYMNWYQQTPGKAPKRWIYDTSKLASGVPSRFSGSGSGTDYTFTISSLQPEDIATYYCQQWSSNPFTFGQGTKLQITRGSGSSGDKTHTCPPCPAPEAAGGPSVFLFPPKPKDTLMISRTPEVTCVVVDVSHEDPEVKFNWYVDGVEVHNAKTKPREEQYNSTYRVVSVLTVLHQDWLNGKEYKCKVSNKALGAPIEKTISKAKGQPREPQVYTLPPSRDELTKNQVSLTCLVKGFYPSDIAVEWESNGQPENNYKTTPPVLDSDGSFFLYSKLTVDKSRWQQGNVFSCSVMHEALHNHYTQKSLSLSPGKGSHHHHHH

Tests used:
recombinant uPAR-Biotin = molecular target: T1, recombinant uPAR-Biotin (human, UniProt Q03405 23-303, limits assumed, biotin, site not stated); assay: BLItz, uPAR-Biotin on streptavidin biosensor
T1 construct: also called human uPAR (BLItz)

human CD3 protein = human CD3 protein (human); assay: ELISA, human CD3 protein coated, anti-human IgG1 Fc-HRP detection
Protocol: (§1) ELISA: The binding and specificity of VH, VH-Fc, and DbTE to uPAR or CD3 were analyzed by ELISA. uPAR-His protein or CD3 protein was coated at 50 ng/well at 4° C. overnight, then blocked with 5% milk for 1 hours at 37° C. After washing 3 times by 0.05% PBST, 3-fold serially diluted VH and VH-Fc binders were incubated on the plate for 1 hour at 37° C. The binding of VH candidates was detected by anti-FLAG M2-peroxidase (HRP) antibody (Sigma-Aldrich) while VH-Fc or DbTE binding was detected by HRP conjugated goat anti-human IgG1 Fc (Sigma-Aldrich) at 1:1000 dilution. The plates were washed 3 times by 0.05% PBST between each reagent's incubation. Binding activity was detected using 3,3′,5,5′-tetramethylbenzidine (Sigma-Aldrich) and was stopped by TMB stop buffer (ScyTek Laboratories). Absorbance was read at 450 nm.

[1] = molecular target: T2, Human uPAR-His recombinant protein (human, UniProt Q03405 23-303); assay: ELISA, recombinant human uPAR coated, anti-human IgG1 Fc-HRP detection
T2 construct: Bought protein; also called recombinant human uPAR; recombinant human uPAR protein; not shown: His tag

[2] = molecular target: T2, Human uPAR-His recombinant protein; assay: ELISA, uPAR-His coated, anti-FLAG-HRP detection
Protocol: as §1

Row | Binder | Kd (recombinant uPAR-Biotin) [nM] | koff (recombinant uPAR-Biotin) [s⁻¹] | kon (recombinant uPAR-Biotin) [M⁻¹ s⁻¹] | EC50 (human CD3 protein) [nM] | EC50 [1] [nM] | EC50 [2] [nM]
1 | B1 | 6.6 | 0.00072 | 110000 | 28.8 | 7.7 | 
2 | B2 | 1.7 | 3.6e-05 | 21000 |  |  | 34.2
3 | B3 | 17.1 | 0.0014 | 79000 |  |  | 12.1
4 | B4 | 1.2 | 4.2e-05 | 36000 | 8.7 | 28 | 
